Experimental findings from article PMC10500007 are described below.

Substitutions are numbered along the chain they refer to. Names may count otherwise.

Experiment [1] has as its target T1, human integrin αvβ8 (soluble, construct not stated), P06756;P26012.
T1 chain 1: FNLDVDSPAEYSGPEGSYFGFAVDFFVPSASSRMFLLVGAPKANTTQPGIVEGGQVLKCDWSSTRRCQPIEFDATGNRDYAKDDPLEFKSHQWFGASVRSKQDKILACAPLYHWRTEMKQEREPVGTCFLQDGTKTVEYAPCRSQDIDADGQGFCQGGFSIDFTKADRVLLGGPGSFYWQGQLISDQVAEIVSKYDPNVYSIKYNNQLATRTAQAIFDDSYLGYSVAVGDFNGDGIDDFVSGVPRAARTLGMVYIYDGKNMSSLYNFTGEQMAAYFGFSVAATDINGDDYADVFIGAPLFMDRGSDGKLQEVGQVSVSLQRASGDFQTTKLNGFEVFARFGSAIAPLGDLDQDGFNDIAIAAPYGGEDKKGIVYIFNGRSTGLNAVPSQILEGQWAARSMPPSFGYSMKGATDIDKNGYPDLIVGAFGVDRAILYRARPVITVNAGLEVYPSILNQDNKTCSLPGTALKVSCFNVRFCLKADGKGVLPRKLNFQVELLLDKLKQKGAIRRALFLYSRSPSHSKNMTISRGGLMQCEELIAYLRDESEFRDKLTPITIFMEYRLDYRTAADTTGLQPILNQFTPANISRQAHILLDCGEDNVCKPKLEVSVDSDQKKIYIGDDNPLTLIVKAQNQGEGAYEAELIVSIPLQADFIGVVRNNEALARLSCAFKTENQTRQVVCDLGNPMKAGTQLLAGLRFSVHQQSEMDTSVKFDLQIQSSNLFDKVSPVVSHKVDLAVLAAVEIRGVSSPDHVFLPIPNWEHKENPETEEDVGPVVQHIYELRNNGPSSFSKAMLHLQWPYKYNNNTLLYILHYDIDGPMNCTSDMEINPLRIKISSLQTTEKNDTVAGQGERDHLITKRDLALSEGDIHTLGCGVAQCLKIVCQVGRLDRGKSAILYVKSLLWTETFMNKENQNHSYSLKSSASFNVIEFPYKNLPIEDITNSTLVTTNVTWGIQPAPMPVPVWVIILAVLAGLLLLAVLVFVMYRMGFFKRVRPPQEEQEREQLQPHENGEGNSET
T1 chain 2: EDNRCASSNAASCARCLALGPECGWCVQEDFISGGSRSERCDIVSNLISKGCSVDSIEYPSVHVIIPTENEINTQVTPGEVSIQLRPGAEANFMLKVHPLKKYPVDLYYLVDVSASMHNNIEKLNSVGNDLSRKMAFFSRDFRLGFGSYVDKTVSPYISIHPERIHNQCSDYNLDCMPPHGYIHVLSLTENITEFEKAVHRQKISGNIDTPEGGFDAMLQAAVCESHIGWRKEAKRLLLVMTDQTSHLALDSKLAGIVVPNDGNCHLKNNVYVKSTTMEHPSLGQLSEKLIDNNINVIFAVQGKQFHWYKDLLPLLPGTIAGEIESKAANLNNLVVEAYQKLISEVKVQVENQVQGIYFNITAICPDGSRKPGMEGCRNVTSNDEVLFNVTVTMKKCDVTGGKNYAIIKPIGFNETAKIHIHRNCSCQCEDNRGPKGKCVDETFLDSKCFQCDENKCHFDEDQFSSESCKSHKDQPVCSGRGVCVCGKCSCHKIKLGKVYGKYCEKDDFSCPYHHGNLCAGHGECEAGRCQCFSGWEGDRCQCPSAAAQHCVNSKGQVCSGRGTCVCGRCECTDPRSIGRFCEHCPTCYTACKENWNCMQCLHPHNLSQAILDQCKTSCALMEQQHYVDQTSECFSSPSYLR
The experiment is described as follows: BLI. As to conditions: chain shown with the change;; parent: 1.9 nM.

The target in experiment [2] is T2, human integrin αvβ6 (soluble, construct not stated), P06756;P18564.
T2 chain 1: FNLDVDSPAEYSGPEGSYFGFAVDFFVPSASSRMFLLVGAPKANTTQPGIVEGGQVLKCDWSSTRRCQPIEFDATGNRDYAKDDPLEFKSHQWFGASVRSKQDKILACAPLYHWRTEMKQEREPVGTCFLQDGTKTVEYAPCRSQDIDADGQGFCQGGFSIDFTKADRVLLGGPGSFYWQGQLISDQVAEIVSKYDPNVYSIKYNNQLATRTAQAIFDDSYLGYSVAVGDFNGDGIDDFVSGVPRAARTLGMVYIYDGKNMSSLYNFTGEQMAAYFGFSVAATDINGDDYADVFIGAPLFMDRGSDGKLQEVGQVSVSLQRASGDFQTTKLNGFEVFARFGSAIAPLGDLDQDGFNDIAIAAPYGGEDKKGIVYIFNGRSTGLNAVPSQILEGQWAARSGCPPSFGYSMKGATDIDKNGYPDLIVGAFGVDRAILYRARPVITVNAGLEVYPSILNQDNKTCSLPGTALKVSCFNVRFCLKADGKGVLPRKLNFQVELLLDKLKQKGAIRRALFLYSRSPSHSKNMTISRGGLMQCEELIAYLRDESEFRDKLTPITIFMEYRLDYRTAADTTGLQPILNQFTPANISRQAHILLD
T2 chain 2: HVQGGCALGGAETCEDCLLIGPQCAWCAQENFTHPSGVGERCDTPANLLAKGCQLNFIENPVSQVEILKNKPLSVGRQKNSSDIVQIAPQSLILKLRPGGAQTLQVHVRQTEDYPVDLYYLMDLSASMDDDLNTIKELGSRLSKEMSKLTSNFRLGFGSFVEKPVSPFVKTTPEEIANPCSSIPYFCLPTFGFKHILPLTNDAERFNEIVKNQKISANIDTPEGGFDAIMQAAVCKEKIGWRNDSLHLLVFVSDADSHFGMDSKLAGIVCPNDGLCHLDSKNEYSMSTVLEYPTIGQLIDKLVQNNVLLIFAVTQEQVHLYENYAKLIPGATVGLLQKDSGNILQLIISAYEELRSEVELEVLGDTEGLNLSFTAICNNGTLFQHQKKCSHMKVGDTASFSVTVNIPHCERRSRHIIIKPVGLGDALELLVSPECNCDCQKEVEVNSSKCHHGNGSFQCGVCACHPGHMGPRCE
Nature of the experiment: BLI. To be noted: chain shown with the change;; parent: > 1000 nM.

B1: B8_BP_dslf M13L; Y16I (protein)
chain: TKCVVRFNFRGDLAVIALKAVKDHLKKEGPHWNITTHNDDEVYLVVRGIHESDAKRIAKWVESTIPGISVETQCD
Broadly, the Kd is the equilibrium constant for the complex coming apart. For the molecule B1, the Kd was 0.3 nM in experiment [1] and 0.7 nM in experiment [2].

B2: B8_BP_dslf Y16I (protein)
chain: B1 chain with L13M
Consider B2, for which the Kd in experiment [1] came out at 0.2 nM.

B3: B8_BP_dslf M13L; V15T; Y16I (protein)
chain: B1 chain with V15T
For the molecule B3, the Kd in experiment [1] was 0.3 nM.

B4: B8_BP_dslf V15T; Y16I (protein)
chain: B1 chain with L13M, V15T
B4: in experiment [1], the Kd came to 0.1 nM.
